In patent US20220184222A1, “BICYCLE TOXIN CONJUGATES AND USES THEREOF” (BicycleTx Limited, priority 2019, published 2022):
“Also recorded” adds a separate entry of the source. Starred links: 1 amine or outer side, 2 acyl side, 3 side chain; linkers in the order of their positions; H or OH if unused. Non-standard residues stand in square brackets, D forms with d. Residues, ends and D or L forms follow the SMILES beside them. *: point of attachment. Dolaproine = CO[C@@H]([C@@H]1CCCN1)[C@@H](C)C(=O)O; Dil = CC[C@H](C)[C@H](NC)[C@@H](CC(=O)O)OC; PABC = O=C(OCc1ccc(N[*:1])cc1)[*:2]; X1 = O=C(CCCC(=O)*)ON1C(=O)CCC1=O; X2 = C[C@@H](N*)[C@@H](O)c1ccccc1; Cit = NC(=O)NCCC[C@H](N)C(=O)O; NMeV = CN[C@H](C(=O)O)C(C)C

Assay: In vivo PK in PC-3 CDX model: LC-MS quantitation of MMAE and BT5528 in plasma and tumour (Example 4)
Parameters: species or system Mus Musculus
Settings: single i.v. dose of BT5528
Protocol: The objective of the research is to evaluate the in vivo PK/PD of test agents in treatment of PC-3 CDX model in Balb/c nude mice.
Each mouse was inoculated subcutaneously at the right flank with PC-3 tumor cells (10×10^6) in 0.2 mL of PBS for tumor development. The animals were randomized and dosed when the average tumor volume reached approximately 440 mm^3 for the PK/PD study. The test article administration and time points in each group were shown in the experimental design table.
Mice were randomly grouped based on tumor volume and dosed as experimental design. Plasma, serum, muscle and tumors were collected at 1 h, 2 h, 8 h, 24 h, 48 h, 72 h and 96 h post dosing.
Two protease inhibitor products were used: Complete™ mini EDTA-free protease inhibitor cocktail tablets and AEBSF (200 mM, prepared by dissolving 100 mg in water (2086 μL)). The AEBSF solution was stored at −20° C. when not in use. For the dilution of plasma, a solution (inhibitor solution A) was prepared by dissolving 12 Complete™ tablets in 50/50 methanol/water (12 mL) and adding 200 mM AEBSF (12 μL). […]
Samples, standards, QCs and blanks were transferred (10 μL diluted plasma, 30 μL tissue homogenate) to a 96-well plate on ice. […] The plate was mixed briefly and sealed ready for injection onto the LC-MS/MS. […]

CC[C@H](C)[C@@H]([C@@H](CC(=O)N1CCC[C@H]1[C@H](OC)[C@@H](C)C(=O)N[C@H](C)[C@@H](O)c1ccccc1)OC)N(C)C(=O)[C@@H](NC(=O)[C@H](C(C)C)N(C)C(=O)OCc1ccc(NC(=O)[C@H](CCCNC(N)=O)NC(=O)[C@@H](NC(=O)CCCC(=O)ON2C(=O)CCC2=O)C(C)C)cc1)C(C)C [BT5528] (X1-V[Cit][PABC][NMeV]V[Dil][Dolaproine]-X2)
MMAE concentrations in tumour: accumulation of MMAE in tumor tissue; also recorded: high MMAE concentrations in tumour, which is stable from 2h to >48h
exposure of BT5528 and MMAE in plasma: short systemic exposure; also recorded: transient exposure of both BT5528 and MMAE in plasma
